In patent publication US20140087995A1 (published 2014):
Numbered stars: 1 amine (or outer) side, 2 acyl side, 3 side chain; on linkers, the order of the positions; unused ones are H or OH. Bridge positions count the residues as written; N and C are the ends. * marks the point of attachment. C20 diacid = O=C(O)CCCCCCCCCCCCCCCCCCC(=O)*; γGlu = O=C(O)[C@H](CCC(=O)[*:2])N[*:1]

T1: human amylin receptor (amylin 3(a) receptor: human calcitonin receptor with RAMP-3) (human, UniProt P30988 25-474; O60896 24-148)
T1 sequence (looked up) 1: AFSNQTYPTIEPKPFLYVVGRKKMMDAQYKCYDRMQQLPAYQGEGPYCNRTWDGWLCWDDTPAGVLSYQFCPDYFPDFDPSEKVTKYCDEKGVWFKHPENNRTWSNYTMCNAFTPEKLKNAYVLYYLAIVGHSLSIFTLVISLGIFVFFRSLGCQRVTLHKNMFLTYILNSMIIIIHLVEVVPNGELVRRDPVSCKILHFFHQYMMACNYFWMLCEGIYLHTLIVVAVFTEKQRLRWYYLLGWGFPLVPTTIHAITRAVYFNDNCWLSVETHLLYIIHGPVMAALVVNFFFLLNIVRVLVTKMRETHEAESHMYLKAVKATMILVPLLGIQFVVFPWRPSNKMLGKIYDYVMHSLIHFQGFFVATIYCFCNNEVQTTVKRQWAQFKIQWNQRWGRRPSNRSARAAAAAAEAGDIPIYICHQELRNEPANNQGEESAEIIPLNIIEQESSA
T1 sequence (looked up) 2: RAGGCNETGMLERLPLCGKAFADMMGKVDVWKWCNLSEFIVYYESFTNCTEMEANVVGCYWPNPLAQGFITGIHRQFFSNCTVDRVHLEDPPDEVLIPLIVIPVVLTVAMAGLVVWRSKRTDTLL

T2: human calcitonin receptor (human, UniProt P30988 25-474)
T2 sequence (looked up): T1 sequence (looked up) 1

B1: N^α1-[(4S)-4-carboxy-4-(19-carboxynonadecanoylamino)butanoyl]-[Glu14,Arg17,Pro21,Pro27,His34]-h-amylin (peptide)
peptide: {C20 diacid-γGlu}-KCNTATCATQRLAEFLRHSSPNFGAIPSSTNVGHNTY-NH2
modifications: disulfide 2-7
SMILES: CC[C@H](C)[C@H](NC(=O)[C@H](C)NC(=O)CNC(=O)[C@H](Cc1ccccc1)NC(=O)[C@H](CC(N)=O)NC(=O)[C@@H]1CCCN1C(=O)[C@H](CO)NC(=O)[C@H](CO)NC(=O)[C@H](Cc1c[nH]cn1)NC(=O)[C@H](CCCNC(=N)N)NC(=O)[C@H](CC(C)C)NC(=O)[C@H](Cc1ccccc1)NC(=O)[C@H](CCC(=O)O)NC(=O)[C@H](C)NC(=O)[C@H](CC(C)C)NC(=O)[C@H](CCCNC(=N)N)NC(=O)[C@H](CCC(N)=O)NC(=O)[C@@H](NC(=O)[C@H](C)NC(=O)[C@@H]1CSSC[C@H](NC(=O)[C@H](CCCCN)NC(=O)CC[C@H](NC(=O)CCCCCCCCCCCCCCCCCCC(=O)O)C(=O)O)C(=O)N[C@@H](CC(N)=O)C(=O)N[C@@H]([C@@H](C)O)C(=O)N[C@@H](C)C(=O)N[C@@H]([C@@H](C)O)C(=O)N1)[C@@H](C)O)C(=O)N1CCC[C@H]1C(=O)N[C@@H](CO)C(=O)N[C@@H](CO)C(=O)N[C@H](C(=O)N[C@@H](CC(N)=O)C(=O)N[C@H](C(=O)NCC(=O)N[C@@H](Cc1c[nH]cn1)C(=O)N[C@@H](CC(N)=O)C(=O)N[C@H](C(=O)N[C@@H](Cc1ccc(O)cc1)C(N)=O)[C@@H](C)O)C(C)C)[C@@H](C)O
notes: also called compound 17
B2: N^α1-[(4S)-4-carboxy-4-(19-carboxynonadecanoylamino)butanoyl]-[Glu14,Arg17,Pro21,Pro27,Pro34]-h-amylin (peptide)
peptide: {C20 diacid-γGlu}-KCNTATCATQRLAEFLRHSSPNFGAIPSSTNVGPNTY-NH2
modifications: disulfide 2-7
SMILES: CC[C@H](C)[C@H](NC(=O)[C@H](C)NC(=O)CNC(=O)[C@H](Cc1ccccc1)NC(=O)[C@H](CC(N)=O)NC(=O)[C@@H]1CCCN1C(=O)[C@H](CO)NC(=O)[C@H](CO)NC(=O)[C@H](Cc1c[nH]cn1)NC(=O)[C@H](CCCNC(=N)N)NC(=O)[C@H](CC(C)C)NC(=O)[C@H](Cc1ccccc1)NC(=O)[C@H](CCC(=O)O)NC(=O)[C@H](C)NC(=O)[C@H](CC(C)C)NC(=O)[C@H](CCCNC(=N)N)NC(=O)[C@H](CCC(N)=O)NC(=O)[C@@H](NC(=O)[C@H](C)NC(=O)[C@@H]1CSSC[C@H](NC(=O)[C@H](CCCCN)NC(=O)CC[C@H](NC(=O)CCCCCCCCCCCCCCCCCCC(=O)O)C(=O)O)C(=O)N[C@@H](CC(N)=O)C(=O)N[C@@H]([C@@H](C)O)C(=O)N[C@@H](C)C(=O)N[C@@H]([C@@H](C)O)C(=O)N1)[C@@H](C)O)C(=O)N1CCC[C@H]1C(=O)N[C@@H](CO)C(=O)N[C@@H](CO)C(=O)N[C@H](C(=O)N[C@@H](CC(N)=O)C(=O)N[C@H](C(=O)NCC(=O)N1CCC[C@H]1C(=O)N[C@@H](CC(N)=O)C(=O)N[C@H](C(=O)N[C@@H](Cc1ccc(O)cc1)C(N)=O)[C@@H](C)O)C(C)C)[C@@H](C)O
notes: also called compound 32
B3: N^α1-[(4S)-4-carboxy-4-(19-carboxynonadecanoylamino)butanoyl]-[Glu14,Arg17,Pro21,Pro27,Pro37]-h-amylin (peptide)
peptide: {C20 diacid-γGlu}-KCNTATCATQRLAEFLRHSSPNFGAIPSSTNVGSNTP-NH2
modifications: disulfide 2-7
SMILES: CC[C@H](C)[C@H](NC(=O)[C@H](C)NC(=O)CNC(=O)[C@H](Cc1ccccc1)NC(=O)[C@H](CC(N)=O)NC(=O)[C@@H]1CCCN1C(=O)[C@H](CO)NC(=O)[C@H](CO)NC(=O)[C@H](Cc1c[nH]cn1)NC(=O)[C@H](CCCNC(=N)N)NC(=O)[C@H](CC(C)C)NC(=O)[C@H](Cc1ccccc1)NC(=O)[C@H](CCC(=O)O)NC(=O)[C@H](C)NC(=O)[C@H](CC(C)C)NC(=O)[C@H](CCCNC(=N)N)NC(=O)[C@H](CCC(N)=O)NC(=O)[C@@H](NC(=O)[C@H](C)NC(=O)[C@@H]1CSSC[C@H](NC(=O)[C@H](CCCCN)NC(=O)CC[C@H](NC(=O)CCCCCCCCCCCCCCCCCCC(=O)O)C(=O)O)C(=O)N[C@@H](CC(N)=O)C(=O)N[C@@H]([C@@H](C)O)C(=O)N[C@@H](C)C(=O)N[C@@H]([C@@H](C)O)C(=O)N1)[C@@H](C)O)C(=O)N1CCC[C@H]1C(=O)N[C@@H](CO)C(=O)N[C@@H](CO)C(=O)N[C@H](C(=O)N[C@@H](CC(N)=O)C(=O)N[C@H](C(=O)NCC(=O)N[C@@H](CO)C(=O)N[C@@H](CC(N)=O)C(=O)N[C@H](C(=O)N1CCC[C@H]1C(N)=O)[C@@H](C)O)C(C)C)[C@@H](C)O
notes: also called compound 8
B4: N^α1-[(4S)-4-carboxy-4-(19-carboxynonadecanoylamino)butanoyl]-[Glu14,Arg17,Pro21,Pro27,His35]-h-amylin (peptide)
peptide: {C20 diacid-γGlu}-KCNTATCATQRLAEFLRHSSPNFGAIPSSTNVGSHTY-NH2
modifications: disulfide 2-7
SMILES: CC[C@H](C)[C@H](NC(=O)[C@H](C)NC(=O)CNC(=O)[C@H](Cc1ccccc1)NC(=O)[C@H](CC(N)=O)NC(=O)[C@@H]1CCCN1C(=O)[C@H](CO)NC(=O)[C@H](CO)NC(=O)[C@H](Cc1c[nH]cn1)NC(=O)[C@H](CCCNC(=N)N)NC(=O)[C@H](CC(C)C)NC(=O)[C@H](Cc1ccccc1)NC(=O)[C@H](CCC(=O)O)NC(=O)[C@H](C)NC(=O)[C@H](CC(C)C)NC(=O)[C@H](CCCNC(=N)N)NC(=O)[C@H](CCC(N)=O)NC(=O)[C@@H](NC(=O)[C@H](C)NC(=O)[C@@H]1CSSC[C@H](NC(=O)[C@H](CCCCN)NC(=O)CC[C@H](NC(=O)CCCCCCCCCCCCCCCCCCC(=O)O)C(=O)O)C(=O)N[C@@H](CC(N)=O)C(=O)N[C@@H]([C@@H](C)O)C(=O)N[C@@H](C)C(=O)N[C@@H]([C@@H](C)O)C(=O)N1)[C@@H](C)O)C(=O)N1CCC[C@H]1C(=O)N[C@@H](CO)C(=O)N[C@@H](CO)C(=O)N[C@H](C(=O)N[C@@H](CC(N)=O)C(=O)N[C@H](C(=O)NCC(=O)N[C@@H](CO)C(=O)N[C@@H](Cc1c[nH]cn1)C(=O)N[C@H](C(=O)N[C@@H](Cc1ccc(O)cc1)C(N)=O)[C@@H](C)O)C(C)C)[C@@H](C)O
notes: also called compound 18
B5: N^α1-[(4S)-4-carboxy-4-(19-carboxynonadecanoylamino)butanoyl]-[Glu14,Arg17,Pro21,Pro27,Pro29]-h-amylin (peptide)
peptide: {C20 diacid-γGlu}-KCNTATCATQRLAEFLRHSSPNFGAIPSPTNVGSNTY-NH2
modifications: disulfide 2-7
SMILES: CC[C@H](C)[C@H](NC(=O)[C@H](C)NC(=O)CNC(=O)[C@H](Cc1ccccc1)NC(=O)[C@H](CC(N)=O)NC(=O)[C@@H]1CCCN1C(=O)[C@H](CO)NC(=O)[C@H](CO)NC(=O)[C@H](Cc1c[nH]cn1)NC(=O)[C@H](CCCNC(=N)N)NC(=O)[C@H](CC(C)C)NC(=O)[C@H](Cc1ccccc1)NC(=O)[C@H](CCC(=O)O)NC(=O)[C@H](C)NC(=O)[C@H](CC(C)C)NC(=O)[C@H](CCCNC(=N)N)NC(=O)[C@H](CCC(N)=O)NC(=O)[C@@H](NC(=O)[C@H](C)NC(=O)[C@@H]1CSSC[C@H](NC(=O)[C@H](CCCCN)NC(=O)CC[C@H](NC(=O)CCCCCCCCCCCCCCCCCCC(=O)O)C(=O)O)C(=O)N[C@@H](CC(N)=O)C(=O)N[C@@H]([C@@H](C)O)C(=O)N[C@@H](C)C(=O)N[C@@H]([C@@H](C)O)C(=O)N1)[C@@H](C)O)C(=O)N1CCC[C@H]1C(=O)N[C@@H](CO)C(=O)N1CCC[C@H]1C(=O)N[C@H](C(=O)N[C@@H](CC(N)=O)C(=O)N[C@H](C(=O)NCC(=O)N[C@@H](CO)C(=O)N[C@@H](CC(N)=O)C(=O)N[C@H](C(=O)N[C@@H](Cc1ccc(O)cc1)C(N)=O)[C@@H](C)O)C(C)C)[C@@H](C)O
notes: also called compound 37
B6: N^α1-[(4S)-4-carboxy-4-(19-carboxynonadecanoylamino)butanoyl]-[Glu14,Arg17,Pro21,Pro27,Pro31]-h-amylin (peptide)
peptide: {C20 diacid-γGlu}-KCNTATCATQRLAEFLRHSSPNFGAIPSSTPVGSNTY-NH2
modifications: disulfide 2-7
SMILES: CC[C@H](C)[C@H](NC(=O)[C@H](C)NC(=O)CNC(=O)[C@H](Cc1ccccc1)NC(=O)[C@H](CC(N)=O)NC(=O)[C@@H]1CCCN1C(=O)[C@H](CO)NC(=O)[C@H](CO)NC(=O)[C@H](Cc1c[nH]cn1)NC(=O)[C@H](CCCNC(=N)N)NC(=O)[C@H](CC(C)C)NC(=O)[C@H](Cc1ccccc1)NC(=O)[C@H](CCC(=O)O)NC(=O)[C@H](C)NC(=O)[C@H](CC(C)C)NC(=O)[C@H](CCCNC(=N)N)NC(=O)[C@H](CCC(N)=O)NC(=O)[C@@H](NC(=O)[C@H](C)NC(=O)[C@@H]1CSSC[C@H](NC(=O)[C@H](CCCCN)NC(=O)CC[C@H](NC(=O)CCCCCCCCCCCCCCCCCCC(=O)O)C(=O)O)C(=O)N[C@@H](CC(N)=O)C(=O)N[C@@H]([C@@H](C)O)C(=O)N[C@@H](C)C(=O)N[C@@H]([C@@H](C)O)C(=O)N1)[C@@H](C)O)C(=O)N1CCC[C@H]1C(=O)N[C@@H](CO)C(=O)N[C@@H](CO)C(=O)N[C@H](C(=O)N1CCC[C@H]1C(=O)N[C@H](C(=O)NCC(=O)N[C@@H](CO)C(=O)N[C@@H](CC(N)=O)C(=O)N[C@H](C(=O)N[C@@H](Cc1ccc(O)cc1)C(N)=O)[C@@H](C)O)C(C)C)[C@@H](C)O
notes: also called compound 31

These binders were tested against T1, human amylin receptor (amylin 3(a) …) (assay: cell-based or functional assay).

hAmylin-R funct. EC50 [nM] | Binder
0.268 | B1
0.05 | B2
0.082 | B3
0.154 | B4
0.092 | B5
0.112 | B6

Each binder was assayed against T2, human calcitonin receptor (assay: cell-based or functional assay).

Ratio hCT/hAmylin funct. | hCTR funct. EC50 [nM] | Binder
8.8 |  | B1
6.6 | 0.327 | B2
1.1 | 0.087 | B3
4.8 | 0.742 | B4
4 | 0.372 | B5
6.4 | 0.717 | B6
